Source: patent US20250163164A1 (LANOVA MEDICINES DEVELOPMENT, published 2025)
Several values for one entry are separate records, joined by “and”; a condition that tells them apart may be missing. Equal entries are not always repeated. Where two headings read alike, the source gives them in different places. Each block holds one binder with its values, some of them ahead of it.

Columns and labels:
[1] = target: T1, human interleukin 13 receptor subunit alpha 2 (IL-13RA2) (human, UniProt Q14627 27-380); assay: cell-based or functional assay
T1 sequence (looked up): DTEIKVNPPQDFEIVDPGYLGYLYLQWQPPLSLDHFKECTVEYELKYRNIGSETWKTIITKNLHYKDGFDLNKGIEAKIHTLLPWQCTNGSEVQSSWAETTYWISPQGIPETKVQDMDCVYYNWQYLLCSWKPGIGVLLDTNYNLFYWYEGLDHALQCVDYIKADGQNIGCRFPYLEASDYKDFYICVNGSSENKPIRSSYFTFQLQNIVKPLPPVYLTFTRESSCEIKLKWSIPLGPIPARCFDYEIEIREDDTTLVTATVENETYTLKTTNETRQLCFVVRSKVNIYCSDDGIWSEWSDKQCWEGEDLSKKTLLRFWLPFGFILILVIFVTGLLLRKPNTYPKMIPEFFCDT

[2] = target: T1, human interleukin 13 receptor subunit …; assay: FACS on A375 cells
Experimental: (§1) A375 cells that endogenously expressed IL-13RA2, were harvested from flasks. 100 μl of 1×10⁶ cells/ml of cells were incubated with primary chimeric antibodies in 3-fold serial dilutions starting from 300 nM to 0.002 nM for 30 minutes on ice. After being washed with 200 μl of FACS buffer twice, cells were incubated with secondary antibody for 30 minutes on ice. Cells were washed with 200 μl of FACS buffer twice and analyzed by FACS.
As shown in FIG. 3 and Table 4, the chimeric antibodies bound to human IL-13RA2 at different EC50.

[3] = target: T1, human interleukin 13 receptor subunit …; assay: FACS on A375 cells; remark: listed apart in the source
Experimental: as §1, with “humanized” for “chimeric”, “4-fold” for “3-fold”, “200” for “300”, “0.003” for “0.002”

- internalization EC50 (pHAb dye), A375 cells [1]: 1.06 nM
- internalization EC50 (pHAb dye), CHO-K1/H_IL-13RA2 cells [1]: 2.92 nM
- internalization EC50 (pHAb dye), HEK-293/H IL-13RA2 cells [1]: 2.18 nM
- internalization Top (MFI), A375 cells [1]: 5260 MFI
- internalization Top (MFI), CHO-K1/H_IL-13RA2 cells [1]: 18700 MFI
- internalization Top (MFI), HEK-293/H IL-13RA2 cells [1]: 19500 MFI
- EC50 [2]: 0.85 nM
- Top (MFI) [2]: 16900 MFI
- EC50 [3]: 0.36 nM and 0.581 nM
B1: xi72B4H4 hIgG1 (antibody, V domains shown)
VH: QVQLQQPGAERVRPGASVKLSCKASGYTFTNYWMNWVKQRPEQGLEWIGRIDPYAGETHYNQKFKDKAILTVDKSSSTAYMQLRSLTSEDSAVYYCARGYGDSYGMDHWGQGTSVTVSS
VL: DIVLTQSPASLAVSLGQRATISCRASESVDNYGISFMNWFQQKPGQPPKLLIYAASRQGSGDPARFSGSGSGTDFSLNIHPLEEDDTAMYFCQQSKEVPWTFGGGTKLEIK

- internalization EC50 (pHAb dye), A375 cells [1]: ~0.441 nM
- internalization EC50 (pHAb dye), CHO-K1/H_IL-13RA2 cells [1]: 1.02 nM
- internalization EC50 (pHAb dye), HEK-293/H IL-13RA2 cells [1]: 1.49 nM
- internalization Top (MFI), A375 cells [1]: 3820 MFI
- internalization Top (MFI), CHO-K1/H_IL-13RA2 cells [1]: 16900 MFI
- internalization Top (MFI), HEK-293/H IL-13RA2 cells [1]: 24700 MFI
- EC50 [2]: 0.47 nM
- Top (MFI) [2]: 15600 MFI
- EC50 [3]: 0.16 nM
B2: xi61H8C1 hIgG1 (antibody, V domains shown)
VH: QVQLQQSGAELARPGASVMLSCKASGYTFTSYWTQWIKQRPGQGLEGIGAIYPGDDDTSYNQKFKGKATLTADKSSSTAYMQLNSLTSEDSAVYYCARGATLLRPFPYWGQGTLVTVSA
VL: DIVMTQSHKFMSTSVGDRVSITCKASQDVSTAVAWYQQKPGQSPKLLIYSASYRYTGVPDRFTGSGSGTDFTFTISSVQAEDLAVYSCQQHYSIPPTFGGGTKLEIK
